This passage reports Kd results from patent US20220204599A1 (published 2022).

Residue numbers refer to the chain shown, from its start. Where two headings read alike, the source gives them in different places.

The chains are these.
B1: hCMAb45 humanized anti-CTHRC1 antibody (antibody, V domains shown)
VH: QVQLVESGAEVKKPGASVKVSCKASGYSFTDYIILWVRQAPGQGLEWMGAINPYYGSTVYGQKFQGRLTITADGSMSTAYMELSSLRSEDTAVYYCARSGYGYDESAMDYWGQGTLVTVSS
VL: DIVMTQTPLSLPVTPGEPASISCRSSKSLLNSDGFTYLDWYLQKPGQSPQLLIYLVSNRFSGVPDRFSGSGSGTDFTLKISRVEAEDVGVYYCFQSNYLPLTFGQGTKLEIK
B2: cCMAb45 anti-CTHRC1 chimeric antibody (antibody, V domains shown)
VH: EVQLQQSGPELVKPGASVKISCKASGYSFTDYIMLWVKQSHGKSLEWIGNINPYYGSTSYNLKFKGKATLTVDKSSSTAYMQLNSLTSEDSAVYYCARSGYGYDESAMDYWGQGTSVTVSS
VL: B1 VL with I2V, V3L, T14N, P15I, E17D, P18Q, R24K, S26T, V88L, Q105S
B3: hCMAb96 humanized anti-CTHRC1 antibody (antibody, V domains shown)
VH: QVQLVQSGAEVKKPGASVKVSCKASGYTFTSYWMHWVRQAPGQGLEWIGYIYPSSGTTNYNQKFQGRVTITADESTSTAYMELSPLRSEDTAVYYCTTESYWGQGTTVTVSS
VL: DIQMTQSPSSLSASLGDTITITCHASQNINVWLAWYQQKPGKAPKLLIYKASNLHSGVPSRFSGSGSGTDFTLTISSLQPEDIATYYCQQGQSYPLTFGQGTKVEIK
B4: cCMAb96 anti-CTHRC1 chimeric antibody (antibody, V domains shown)
VH: QVQLQQPGSELVRPGASVKLSCKASGYTFTSYWMHWVKQRPGQGLEWIGNIYPSSGTTNYDEKFKNKATLTVDTSSTTAYMHLSSLTSEDSAVYYCTTESYWGQGTTLTVSS
VL: B3 VL with Q3V, A34S, K42N, A43I, S56T, D70G, Q100G, V104L
B5: CTHRC1-His (other)
chain: GAVGASEIPKGKQKAQLRQREVVDLYNGMCLQGPAGVPGRDGSPGANGIPGTPGIPGRDGFKGEKGECLRESFEESWTPNYKQCSWSSLNYGIDLGKIAECTFTKMRSNSALRVLFSGSLRLKCRNACCQRWYFTFNGAECSGPLPIEAIIYLDQGSPEMNSTINIHRTSSVEGLCEGIGAGLVDVAIWVGTCSDYPKGDASTGWNSVSRIIIEELPKLAASANSAVDHHHHHHHH

What all share (assay): ELISA
Assay [1] deals with B5.
Assay [2] addresses B5. This is another data set of the same source.
The target in assay [3] is SA2764.
The target of assay [4] is SA2758.
In assay [5] the target is SA2771.
Assay [6] concerns the target SA2772.
The target of assay [7] is SA2767.
The target of assay [8] is SA2766.
Assay [9] deals with SA2773.
Assay [10] has as its target SA2760.
The target in assay [11] is SA2763.

As for B1, the results for the Kd in assay [1] and in assay [2] were 0.089 nM and 0.128 nM, respectively.

Take B2: the dissociation constant (Kd) in assay [1] worked out at 0.093 nM; in [2] it was 0.257 nM.

Turning to B3, the equilibrium dissociation constant (Kd) was 0.131 nM in assay [1] and 0.196 nM in assay [2].

Take B4: the values for the Kd in [1] and in assay [2] were 0.128 nM and 0.187 nM, respectively.

Take B5: the Kd was 0.175 nM in [3]; 0.082 nM in assay [4]; 0.221 nM in assay [5]; 0.406 nM in assay [6]; 0.48 nM in assay [7]; 0.202 nM in assay [8]. Besides, the dissociation constant Kd came to 0.3 nM in [9], 0.118 nM in assay [10] and 0.25 nM in assay [11].
